{
  "source": "patent US20030170875A1",
  "target": "wild type human norepinephrine transporter (human) (UniProt P23975)",
  "experiment": "cell-based or functional assay",
  "data": [
    {"substance": "human norepinephrine transporter A457P mutant (from UniProt P23975 1-617)", "values": [
      {"measurement": "[3H]NE uptake on cotransfection (% of wt alone)", "result": 59}
    ]}
  ]
}
